These results are taken from patent US20230382979A1 (ADAPTIVE BIOTECHNOLOGIES, published 2023).

Test [1] deals with T1, S2 subunit of the SARS-CoV-2 spike protein, WA01/2020 strain (SARS-CoV-2, WA01/2020 strain, UniProt P0DTC2 686-1213). In words: ELISA screening, antibody concentration not given. Background: An ELISA detects its analyte on a solid surface through an enzyme-linked reagent.
Test [2] concerns the target T2, SARS-CoV-2 spike (S) protein trimer, WA01/2020 strain (SARS-CoV-2, WA01/2020 strain, UniProt P0DTC2 16-1213). In words: ELISA screening, antibody concentration not given.
In test [3] the target is T3, S1 subunit of the SARS-CoV-2 spike protein, WA01/2020 strain (SARS-CoV-2, WA01/2020 strain, UniProt P0DTC2 16-685). In words: ELISA screening, antibody concentration not given.
The target of test [4] is T4, SARS-CoV-2 nucleocapsid (N) protein (SARS-CoV-2, UniProt P0DTC9 1-419). In words: ELISA screening, antibody concentration not given.
The target of test [5] is SARS-CoV (2003) spike protein borne on lentiviral pseudovirus (SARS-CoV (2003), UniProt P59594 14-1255). Put plainly: cell-based or functional assay.
Test [6] concerns the target SARS-CoV-2 spike protein, WA1/2020, borne on lentiviral pseudovirus (SARS-CoV-2, WA01/2020 strain, UniProt P0DTC2 14-1273). Put plainly: cell-based or functional assay.
Test [7] has as its target T2, SARS-CoV-2 spike (S) protein trimer, …. Put plainly: dose-response ELISA on coated spike antigen.
In another test the target is T5, MERS-COV (S2).
T5 chain: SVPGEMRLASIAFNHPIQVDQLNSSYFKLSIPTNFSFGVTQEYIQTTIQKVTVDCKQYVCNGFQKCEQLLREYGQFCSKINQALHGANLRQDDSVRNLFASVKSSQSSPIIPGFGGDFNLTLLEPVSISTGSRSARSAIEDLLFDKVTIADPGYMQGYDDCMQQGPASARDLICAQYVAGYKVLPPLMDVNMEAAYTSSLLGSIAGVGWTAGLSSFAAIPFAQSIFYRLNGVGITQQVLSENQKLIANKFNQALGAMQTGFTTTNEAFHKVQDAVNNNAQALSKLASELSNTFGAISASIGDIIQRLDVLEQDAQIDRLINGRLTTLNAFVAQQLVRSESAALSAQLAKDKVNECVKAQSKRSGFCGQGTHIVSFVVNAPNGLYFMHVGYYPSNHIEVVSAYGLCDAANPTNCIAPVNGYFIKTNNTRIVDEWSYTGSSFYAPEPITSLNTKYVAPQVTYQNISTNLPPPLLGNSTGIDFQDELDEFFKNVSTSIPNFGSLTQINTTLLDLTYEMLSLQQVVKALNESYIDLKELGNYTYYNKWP
In words: dose-response ELISA on coated spike antigen.

The target of a further test is T6, MERS-COV (S1+S2).
T6 chain: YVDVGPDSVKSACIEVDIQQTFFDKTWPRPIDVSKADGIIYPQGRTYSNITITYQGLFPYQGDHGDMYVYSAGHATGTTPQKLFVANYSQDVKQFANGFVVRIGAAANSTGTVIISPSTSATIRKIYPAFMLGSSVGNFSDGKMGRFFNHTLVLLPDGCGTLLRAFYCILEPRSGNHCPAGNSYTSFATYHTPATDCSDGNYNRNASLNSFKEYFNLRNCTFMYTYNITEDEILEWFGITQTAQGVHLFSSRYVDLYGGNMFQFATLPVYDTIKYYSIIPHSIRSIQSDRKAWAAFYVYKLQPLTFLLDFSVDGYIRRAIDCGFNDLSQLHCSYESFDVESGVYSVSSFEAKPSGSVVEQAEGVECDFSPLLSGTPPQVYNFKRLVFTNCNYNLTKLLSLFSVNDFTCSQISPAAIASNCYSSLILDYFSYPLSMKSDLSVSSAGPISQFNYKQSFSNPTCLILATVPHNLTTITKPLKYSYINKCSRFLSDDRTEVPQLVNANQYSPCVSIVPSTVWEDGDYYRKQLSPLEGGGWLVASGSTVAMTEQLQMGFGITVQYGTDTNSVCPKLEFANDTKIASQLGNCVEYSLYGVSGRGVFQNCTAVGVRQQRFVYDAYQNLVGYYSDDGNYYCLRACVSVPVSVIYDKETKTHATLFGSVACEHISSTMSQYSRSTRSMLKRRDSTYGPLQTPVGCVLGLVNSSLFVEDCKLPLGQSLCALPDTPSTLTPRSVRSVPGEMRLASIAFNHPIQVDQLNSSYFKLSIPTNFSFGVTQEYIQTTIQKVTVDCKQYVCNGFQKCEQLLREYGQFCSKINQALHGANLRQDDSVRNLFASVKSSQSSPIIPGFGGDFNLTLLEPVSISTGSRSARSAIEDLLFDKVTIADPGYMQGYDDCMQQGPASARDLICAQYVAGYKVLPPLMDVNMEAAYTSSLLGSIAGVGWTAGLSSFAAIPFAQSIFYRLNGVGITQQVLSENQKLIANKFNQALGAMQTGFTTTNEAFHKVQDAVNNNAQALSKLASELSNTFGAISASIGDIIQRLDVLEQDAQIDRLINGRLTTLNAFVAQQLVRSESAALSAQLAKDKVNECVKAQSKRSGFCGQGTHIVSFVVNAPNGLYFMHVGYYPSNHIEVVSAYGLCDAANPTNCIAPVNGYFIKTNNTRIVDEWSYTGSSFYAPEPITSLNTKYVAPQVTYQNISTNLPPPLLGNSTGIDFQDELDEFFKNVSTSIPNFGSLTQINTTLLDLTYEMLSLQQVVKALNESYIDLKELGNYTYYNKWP
In words: dose-response ELISA on coated spike antigen.

The target of test [8] is T3, S1 subunit of the SARS-CoV-2 spike …. Put plainly: dose-response ELISA.
For test [9], the target named is T2, SARS-CoV-2 spike (S) protein trimer, …. In words: dose-response ELISA on coated antigen.
For test [10] the target is unchanged.
In test [11] the target is T1, S2 subunit of the SARS-CoV-2 spike …. Put plainly: ELISA, antibody at 0.1 ug/mL.
The target of test [12] is T4, SARS-CoV-2 nucleocapsid (N) protein. In words: ELISA, antibody at 0.1 ug/mL.
The target in test [13] is T1, S2 subunit of the SARS-CoV-2 spike …. Put plainly: dose-response ELISA on coated spike antigen.
Test [14] has as its target T3, S1 subunit of the SARS-CoV-2 spike …. Put plainly: dose-response ELISA on coated antigen.
Test [15] shares this target.
Test [16] deals with T4, SARS-CoV-2 nucleocapsid (N) protein. In words: ELISA, antibody at 0.1 ug/mL. This is another data set of the same source.

B1: antibody 1915 (antibody, V domains shown)
VH: QVQLVESGGGVVQPGRSLRLSCAASGFTFSSYAMHWVRQAPGKGLEWVAVISYDGSNKYYADSVKGRFTISRDNSKNTLYLQMDSLRAQDTAVYYCATPRDMFSSGWSSPFDYWGQGTLVTVSS
VL: DIQMTQSPSSLSASVGDRVTITCQASQDISIYLTWYQQKPGKAPKLLIYGASNLEVEVPSRFSGSGSGTEFTLTISSLQPEDFATYFCQHSDDLPVTFGGGTKVEVK
Turning to B1, the binding result in [1], in test [2], in test [3] and in [4] was “no binding (tested: not printed)” in each case.

B2: antibody 1439 (antibody, V domains shown)
VH: QVQLQESGPGLVKPSETLSLTCTVSGDSISTYYWSWIRQPPGKGLEWIGYIHYSGSTNYNPSLKSRVAVSVDTSKNQFSLKLSSVTAADTAVYYCARGGGVFGVVINFDYWGQGILVTVSS
VL: NFMLTQPYSVSESPGKTVTISCTRSSGSIASNYVQWYQQRPGSAPTTVIYEDNQRPSGVPDRFSGSIDSSSNSASLTISGLKTEDEADYYCQSRDSSNPVVFGGGTKLTVL
Consider B2, for which the “Pseudo Neut, SARS-CoV 2003 IC50” value in test [5] worked out at 29 nM. Moreover, the “Pseudo Neut, WA1/2020 IC50 (pM)” value in test [6] worked out at 30200 pM. In addition, in test [7], the EC50 (read off the curve) (usually the midpoint of the concentration-response curve) was around 0.1 µg/mL. Moreover, the binding result with MERS-COV (S2) and with MERS-COV (S1+S2) was “no binding (tested: 10000 ng/ml)” in each case.

B3: antibody 2432 (antibody, V domains shown)
VH: QVQLVQSGAEVKKPGSSVKVSCKASGDTFSSYAISWVRQAPGQGLEWLGGIIPIFGSADYAQKFQGRVTITADEFTSTAYMELSSLRSEDTAVYFCAREKYGDYGEGPLYNFDYWGQGTLVTVSS
VL: not shown
B3: in [8], the binding result was “no binding”. The EC50 (as a rule, the midpoint of the concentration-response curve) in test [9] stood at 0.024 nM. For the same molecule, the Kd (as a rule, a measure of binding affinity in units of concentration) in test [10] amounted to 0.243 nM.

B4: antibody 2606 (antibody, V domains shown)
VH: EVQLVESGGGLVKPGGSLRLSCAASGFTFSSYSMNWVRQAPGKGLEWVSSITSSSGYMYYADSVKGRFTISRDNAKNSLYLQLNSLRAEDTAVYYCAKDSAFDLWEVRSYYYVMDVWGQGTTVTVSS
VL: not shown
Consider B4, for which, in test [8], the binding result is “no binding”. This molecule also yielded a concentration giving a half-maximal response (EC50) in [9] of 0.057 nM. In [10], binding was characterised by a dissociation constant (Kd) of 0.00787 nM.

B5: antibody 1959 (antibody, V domains shown)
VH: QVQLVQSGTEVKKPGSSVRVSCQASGDTFTSHAIIWIRQAPGQGLEYLGRIIPVLDITNAAQRFLGRLTLTADKSTTTAYMELSSLRSEDTAVYYCARAPFGLIVMYDHWGQGTLVTVTA
VL: EIVLTQSPGTLSLSPGERATLSCRASQSVSGNFLAWYQQKPGQAPRLLIHETSKRATGIPDRVSGGGSGTDFTLTISRLEPEDFAVYHCQQYGTTAVTFGQGTRLDMK
With B5, the binding result in test [1], in test [2], in test [3] and in test [4] was “no binding (tested: not printed)” throughout.

B6: antibody 1589 (antibody, V domains shown)
VH: EVQLVESGGGLIQVGGSLRLSCAASGLTVTSNYMNWVRQGPGKGLEWVSLIYSGGTTYYADSVKGRFTISRDDSKNTLYLQMNSLRAEDTAVYYCARPIVGARSGMDVWGQGTAVTVSS
VL: DIQMTQSPSSLSASVGDRVTITCQASQDINKYLNWYQQKPGKAPKLLIYDASNLETGVPSRFSGSGSGTDFTFTISSLQPEDLATYYCHQFDNLPGTFGGGTKVEIK
With B6, the “Pseudo Neut, WA1/2020 IC50 (pM)” value in test [6] turned out to be 1170 pM. For the same molecule, the binding result was “no binding (tested: 10000 ng/ml)” with MERS-COV (S2), “no binding (tested: 10000 ng/ml)” with MERS-COV (S1+S2), “no binding (tested: 0.1 ug/mL)” in [11] and “no binding (tested: 0.1 ug/mL)” in [12].

B7: antibody 2793 (antibody, V domains shown)
VH: QVQLVQSGAEVKKPGASVKVSCKVSGFTLPELSIHWVRQAPGKGLEWMGGFDPEDAKTIYAQKFQGRVTMTEDTSTDIAYMELNSLRSDDTAVYYCATGSPFGVVGNWLDPWGQGTLVTVSS
VL: QSALTQPASVSGSPGQSITISCTGTSSDVGDFSYVSWYQQHPGKAPKLMIYEVTKRPSGVSNRFSGSKSGNTASLTISGLQTEDEADYYCTSYTSSRLVLFGGGTKLTVL
As to B7, the binding result in [13] is on record as “no binding (tested: 10000 ng/ml)”; in the test with MERS-COV (S2), “no binding (tested: 10000 ng/ml)”; in the test with MERS-COV (S1+S2), “no binding (tested: 10000 ng/ml)”; in [16], “no binding (tested: 0.1 ug/mL)”. In addition, the EC50 stood at 0.068 nM in [9] and 0.113 nM in test [14]. Besides, the Kd in test [15] is 0.398 nM.
